Starred links: 1 amine or outer side, 2 acyl side, 3 side chain; linkers in the order of their positions; H or OH if unused. Non-standard residues stand in square brackets, D forms with d. No end group written: not given here. TyrEtNAc = (2S)-3-[4-(2-acetamidoethoxy)phenyl]-2-amino-propanoic acid, CC(=O)NCCOc1ccc(C[C@H](N[*:1])C(=O)[*:2])cc1; dProc3CH24Pal = (2R,3S)-3-(4-pyridylmethyl)pyrrolidine-2-carboxylic acid, O=C([C@H]1[C@@H](Cc2ccncc2)CCN1[*:1])[*:2]; ThrOBn = (2S,3R)-2-amino-3-benzyloxy-butanoic acid, C[C@@H](OCc1ccccc1)[C@H](N[*:1])C(=O)[*:2]; dPyrimA = (2R)-2-amino-3-pyrimidin-5-yl-propanoic acid, O=C([C@@H](Cc1cncnc1)N[*:1])[*:2]; daMeSMe = (2R)-2-amino-3-methoxy-2-methyl-propanoic acid, COC[C@@](C)(N[*:1])C(=O)[*:2]; ThrOMe = (2S,3R)-2-amino-3-methoxy-butanoic acid, CO[C@H](C)[C@H](N[*:1])C(=O)[*:2]; dPro(4R-(4-pyridylmethyl)) = O=C(O)[C@H]1C[C@@H](Cc2ccncc2)CN1; Trp(βS-Me,4-F) = C[C@@H](c1c[nH]c2cccc(F)c12)[C@H](N)C(=O)O; Bip(4'-CONH2) = NC(=O)c1ccc(-c2ccc(C[C@H](N)C(=O)O)cc2)cc1; Bip(4'-COOH) = N[C@@H](Cc1ccc(-c2ccc(C(=O)O)cc2)cc1)C(=O)O; Ala(1-bicyclo(1.1.1)pentyl) = N[C@@H](CC12CC(C1)C2)C(=O)O; dPro(3S-(4-F-Bn)) = O=C(O)[C@@H]1NCC[C@@H]1Cc1ccc(F)cc1; Trp(4-Cl) = N[C@@H](Cc1c[nH]c2cccc(Cl)c12)C(=O)O; Ala(pyrimidin-5-yl) = N[C@@H](Cc1cncnc1)C(=O)O; Phe(4-CONH2) = NC(=O)c1ccc(C[C@H](N)C(=O)O)cc1; Phe(4-COOH) = N[C@@H](Cc1ccc(C(=O)O)cc1)C(=O)O; Nva(5,5,5-F3) = N[C@@H](CCC(F)(F)F)C(=O)O; Pro(cis-4-F) = O=C(O)[C@@H]1C[C@H](F)CN1; dPhe(4-F) = N[C@H](Cc1ccc(F)cc1)C(=O)O; Ala(4-THP) = N[C@@H](CC1CCOCC1)C(=O)O; Dap(CONH2) = NC(=O)NC[C@H](N)C(=O)O; hTyr = N[C@@H](CCc1ccc(O)cc1)C(=O)O; d(αMeD) = C[C@@](N)(CC(=O)O)C(=O)O; d(αMeN) = C[C@@](N)(CC(N)=O)C(=O)O; h4Pal = N[C@@H](CCc1ccncc1)C(=O)O; hPhe = N[C@@H](CCc1ccccc1)C(=O)O; 4Pal = N[C@@H](Cc1ccncc1)C(=O)O; dCha = N[C@H](CC1CCCCC1)C(=O)O; NMeDab = CN[C@@H](CCN)C(=O)O; dCba = N[C@H](CC1CCC1)C(=O)O; Dab = NCC[C@H](N)C(=O)O; Nva = CCC[C@H](N)C(=O)O; Aib = CC(C)(N)C(=O)O

This is an account of results in patent US20260242419A1, “A CYCLIC PEPTIDE FOR TRAPPING INTERLEUKIN-1 BETA” (Merck Sharp & Dohme LLC, priority 2023, published 2026).

Sequences and labels used below:
B1: SEQ ID NO: 231 (peptide)
peptide: [Bip(4'-COOH)][4Pal][Phe(4-COOH)]G[Pro(cis-4-F)][Trp(βS-Me,4-F)][Aib]SW[d(αMeD)][Nva]Q[Dab]G[dProc3CH24Pal]
modifications: lactam (positions not given here); also: macrolactam, ring places not given here
B2: SEQ ID NO: 232 (peptide)
peptide: [Bip(4'-COOH)][4Pal][Phe(4-COOH)]G[Pro(cis-4-F)][Trp(βS-Me,4-F)][Aib]SW[d(αMeD)][Nva(5,5,5-F3)]Q[Dab]G[dProc3CH24Pal]
modifications: lactam (positions not given here); also: macrolactam, ring places not given here
B3: SEQ ID NO: 234 (peptide)
peptide: [Bip(4'-COOH)][4Pal][Phe(4-COOH)]G[Pro(cis-4-F)][Trp(βS-Me,4-F)][Aib]SW[Aib][dD]Q[Dab]G[dProc3CH24Pal]
modifications: lactam (positions not given here); also: macrolactam, ring places not given here
B4: SEQ ID NO: 223 (peptide)
peptide: [Bip(4'-COOH)][4Pal][Phe(4-COOH)]G[Pro(cis-4-F)][Trp(βS-Me,4-F)][Aib]SW[d(αMeD)][h4Pal]Q[Dap(CONH2)]G[dProc3CH24Pal]
modifications: lactam (positions not given here); also: macrolactam, ring places not given here
B5: SEQ ID NO: 228 (peptide)
peptide: [Bip(4'-COOH)][4Pal][Phe(4-COOH)]G[Pro(cis-4-F)][Trp(βS-Me,4-F)][Aib]SW[d(αMeD)][ThrOMe]Q[Dap(CONH2)]G[dProc3CH24Pal]
modifications: lactam (positions not given here); also: macrolactam, ring places not given here
B6: SEQ ID NO: 239 (peptide)
peptide: [Bip(4'-COOH)][4Pal][Phe(4-COOH)]G[Pro(cis-4-F)][Trp(βS-Me,4-F)][Aib]SW[d(αMeD)][dCba]Q[Dab]G[dProc3CH24Pal]
modifications: lactam (positions not given here); also: macrolactam, ring places not given here
B7: SEQ ID NO: 238 (peptide)
peptide: [Bip(4'-COOH)][4Pal][Phe(4-COOH)]G[Pro(cis-4-F)][Trp(βS-Me,4-F)][Aib]SW[d(αMeD)][dL]Q[Dab]G[dProc3CH24Pal]
modifications: lactam (positions not given here); also: macrolactam, ring places not given here
B8: SEQ ID NO: 217 (peptide)
peptide: cyclo([Bip(4'-CONH2)][Ala(1-bicyclo(1.1.1)pentyl)][Phe(4-COOH)]G[Pro(cis-4-F)][Trp(βS-Me,4-F)][Aib]SW[d(αMeN)][Ala(4-THP)]Q[Dab]G[dPro(3S-(4-F-Bn))])
modifications: ring closure inferred; not fully specified (bridges); printed as Bip4CONH2-AlaPent-Phe4COOH-G-Proc4F-SbMeW4F-Aib-S-W-daMeN-AlaTHP4-Q-Dab-G-dProc3Bn4F, cyclic (macrolactam)
B9: SEQ ID NO: 236 (peptide)
peptide: [Bip(4'-COOH)][4Pal][Phe(4-COOH)]G[Pro(cis-4-F)][Trp(βS-Me,4-F)][Aib]SW[d(αMeD)][dPhe(4-F)]Q[Dab]G[dProc3CH24Pal]
modifications: lactam (positions not given here); also: macrolactam, ring places not given here
B10: SEQ ID NO: 229 (peptide)
peptide: [Bip(4'-COOH)][4Pal][Phe(4-COOH)]G[Pro(cis-4-F)][Trp(βS-Me,4-F)][Aib]SW[d(αMeD)][ThrOBn]Q[Dab]G[dProc3CH24Pal]
modifications: lactam (positions not given here); also: macrolactam, ring places not given here
B11: SEQ ID NO: 235 (peptide)
peptide: [Bip(4'-COOH)][4Pal][Phe(4-COOH)]G[Pro(cis-4-F)][Trp(βS-Me,4-F)][Aib]SW[d(αMeD)][Ala(pyrimidin-5-yl)]Q[NMeDab]G[dProc3CH24Pal]
modifications: lactam (positions not given here); also: macrolactam, ring places not given here
B12: SEQ ID NO: 226 (peptide)
peptide: [Bip(4'-COOH)][4Pal][Phe(4-COOH)]G[Pro(cis-4-F)][Trp(βS-Me,4-F)][Aib]S[Trp(4-Cl)][d(αMeD)][Ala(pyrimidin-5-yl)]Q[Dap(CONH2)]G[dProc3CH24Pal]
modifications: lactam (positions not given here); also: macrolactam, ring places not given here
B13: SEQ ID NO: 227 (peptide)
peptide: [Bip(4'-COOH)][4Pal][Phe(4-COOH)]G[Pro(cis-4-F)][Trp(βS-Me,4-F)][Aib]SW[d(αMeD)][ThrOMe]Q[Dab]G[dProc3CH24Pal]
modifications: lactam (positions not given here); also: macrolactam, ring places not given here
B14: SEQ ID NO: 225 (peptide)
peptide: [Bip(4'-COOH)][4Pal][Phe(4-COOH)]G[Pro(cis-4-F)][Trp(βS-Me,4-F)][Aib]S[Trp(4-Cl)][d(αMeD)][Ala(pyrimidin-5-yl)]Q[Dab]G[dProc3CH24Pal]
modifications: lactam (positions not given here); also: macrolactam, ring places not given here
B15: SEQ ID NO: 221 (peptide)
peptide: [Bip(4'-COOH)][4Pal][Phe(4-COOH)]G[Pro(cis-4-F)][Trp(βS-Me,4-F)][Aib]SW[d(αMeD)][hPhe]Q[Dab]G[dProc3CH24Pal]
modifications: lactam (positions not given here); also: macrolactam, ring places not given here
B16: SEQ ID NO: 220 (peptide)
peptide: [Bip(4'-COOH)][4Pal][Phe(4-COOH)]G[Pro(cis-4-F)][Trp(βS-Me,4-F)][Aib]SW[Aib][hTyr]Q[Dab]G[dProc3CH24Pal]
modifications: lactam (positions not given here); also: macrolactam, ring places not given here
B17: SEQ ID NO: 224 (peptide)
peptide: [Bip(4'-COOH)][4Pal][Phe(4-COOH)]G[Pro(cis-4-F)][Trp(βS-Me,4-F)][Aib]SW[daMeSMe][Ala(pyrimidin-5-yl)]Q[Dab]G[dProc3CH24Pal]
modifications: lactam (positions not given here); also: macrolactam, ring places not given here
B18: SEQ ID NO: 237 (peptide)
peptide: [Bip(4'-COOH)][4Pal][Phe(4-COOH)]G[Pro(cis-4-F)][Trp(βS-Me,4-F)][Aib]SW[d(αMeD)][dCha]Q[Dab]G[dProc3CH24Pal]
modifications: lactam (positions not given here); also: macrolactam, ring places not given here
B19: SEQ ID NO: 222 (peptide)
peptide: [Bip(4'-COOH)][4Pal][Phe(4-COOH)]G[Pro(cis-4-F)][Trp(βS-Me,4-F)][Aib]SW[d(αMeD)][h4Pal]Q[Dab]G[dProc3CH24Pal]
modifications: lactam (positions not given here); also: macrolactam, ring places not given here
B20: SEQ ID NO: 233 (peptide)
peptide: [Bip(4'-COOH)][4Pal][Phe(4-COOH)]G[Pro(cis-4-F)][Trp(βS-Me,4-F)][Aib]SW[Aib][dPyrimA]Q[Dab]G[dProc3CH24Pal]
modifications: lactam (positions not given here); also: macrolactam, ring places not given here
B21: SEQ ID NO: 230 (peptide)
peptide: [Bip(4'-COOH)][4Pal][Phe(4-COOH)]G[Pro(cis-4-F)][Trp(βS-Me,4-F)][Aib]SW[d(αMeD)][Ala(pyrimidin-5-yl)]Q[Dap(CONH2)]G[dProc3CH24Pal]
modifications: lactam (positions not given here); also: macrolactam, ring places not given here
B22: SEQ ID NO: 219 (peptide)
peptide: cyclo([Bip(4'-COOH)][4Pal][Phe(4-COOH)]G[Pro(cis-4-F)][Trp(βS-Me,4-F)][Aib]SW[d(αMeD)][hTyr]Q[Dab]G[dProc3CH24Pal])
modifications: ring closure inferred; not fully specified (bridges); printed as Bip4CO2H-4Pal-Phe4COOH-G-Proc4F-SbMeW4F-Aib-S-W-daMeD-hY-Q-Dab-G-dProc3CH24Pal, cyclic (macrolactam)

In the assay the target is Recombinant human IL-1β (BioLegend 579404) (human, UniProt P01584 117-269). The experiment in a line: cell-based or functional assay.
Turning to B1, the “MRC5 IC50” value is 27 pM.

With B2, the “MRC5 IC50” value was determined as 22 pM.

On to B3, for which the “MRC5 IC50” value came to 24 pM.

As for B4, the “MRC5 IC50” value was 27 pM.

Regarding B5, the “MRC5 IC50” value was 21 pM.

For the molecule B6, the “MRC5 IC50” value worked out at 20 pM.

In the case of B7, the “MRC5 IC50” value turned out to be 24 pM.

As to B8, the “MRC5 IC50” value was determined as 28 pM.

As for B9, the “MRC5 IC50” value is 21 pM.

As for B10, the “MRC5 IC50” value turned out to be 23 pM.

B11: the “MRC5 IC50” value worked out at 18 pM.

Take B12: the “MRC5 IC50” value was 22 pM.

As for B13, the “MRC5 IC50” value worked out at 14 pM.

Take B14: the “MRC5 IC50” value turned out to be 19 pM.

As for B15, the “MRC5 IC50” value came out at 20 pM.

As for B16, the “MRC5 IC50” value came to 39 pM.

For the molecule cyclo([TyrEtNAc][4Pal][Phe(4-CONH2)]G[Pro(cis-4-F)][Trp(βS-Me,4-F)][Aib]SW[Aib][Ala(pyrimidin-5-yl)]Q[NMeDab]G[dPro(4R-(4-pyridylmethyl))]) (ring closure inferred; not fully specified (bridges)) [SEQ ID NO: 218], the “MRC5 IC50” value was 36 pM.

B17: the “MRC5 IC50” value worked out at 30 pM.

For the molecule B18, the “MRC5 IC50” value was 25 pM.

As to B19, the “MRC5 IC50” value came to 20 pM.

For the molecule B20, the “MRC5 IC50” value is 30 pM.

For the molecule B21, the “MRC5 IC50” value was found to be 22 pM.

As for B22, the “MRC5 IC50” value stood at 18 pM.
